# Measurements as given in patent publication US20190284272A1 (published 2019).
# T1: canine IL-31 protein (Canine_IL31) (canine)
# T1 construct: Recombinant, secreted from CHO cells; also called cIL-31; canine cytokine
# T1 chain: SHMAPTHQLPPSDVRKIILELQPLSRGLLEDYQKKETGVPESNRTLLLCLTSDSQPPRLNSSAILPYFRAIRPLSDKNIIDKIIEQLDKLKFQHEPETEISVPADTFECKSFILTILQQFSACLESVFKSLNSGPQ
# T2: canine IL-31 protein (Canine_IL31)
# T2 chain: T1 chain
# B1: ZIL154 (antibody, V domains shown)
# VH: EVHLVESGGDLVKPWGSLRLSCVASGFTFSDRGMSWVRQSPGKGLQWVAYIRYDGSRTDYADAVEGRFTISRDNAKNTLYLQMNSLRAEDTAVYYCARWDGSSFDYWGQGTLVTVSS
# VL: DIVVTQTPLSLSVSPGETASFSCKASQSLLHSDGNTYLDWFRQKPGQSPQRLIYKVSNRDPGVPDRFSGSGSGTDFTLRISGVEADDAGLYYCMQAIHFPLTFGAGTKVELKR
# notes: Recombinant fully canine IgG (65_1), HEK 293; also called CAN-ZIL154
# B2: ZTS-361 (antibody)
# heavy: QVLLVQSGAEVRTPGASVKIFCKASGYSFTSYTIHWLRQAPAQGLEWMGNINPTSGYTENNQRFKDRLTLTADTSTNTAYMELSSLRSADTAMYYCARWGFKYDGEWSFDVWGAGTTVTVSSASTTAPSVFPLAPSCGTTSGATVALACLVLGYFPEPVTVSWNSGALTSGVHTFPAVLQASGLYSLSSMVTVPSSRWLSDTFTCNVAHPPSNTKVDKTVRKTDHPPGPKPCDCPKCPPPEAAGAPSIFIFPPKPKDTLSISRTPEVTCLVVDLGPDDSDVQITWFVDNTQVYTAKTSPREEQFNSTYRVVSVLPILHQDWLKGKEFKCKVNSKSLPSPIERTISKAKGQPHEPQVYVLPPAQEELSRNKVSVTCLIKSFHPPDIAVEWEITGQPEPENNYRTTPPQLDSDGTYFVYSKLSVDRSHWQRGNTYTCSVSHEALHSHHTQKSLTQSPGK
# light: EIQMTQSPSSLSASPGDRVTITCRASQGISIWLSWYQQKPGNIPKVLINKASNLHIGVPSRFSGSGSGTDFTLTISSLEPEDAATYYCLQSQTYPLTFGGGTKLEIKRSDAQPSVFLFQPSLDELHTGSASIVCILNDFYPKEVNVKWKVDGVVQNKGIQESTTEQNSKDSTYSLSSTLTMSSTEYQSHEKFSCEVTHKSLASTLVKSFQRSECQRE
# notes: Felinized 15H05 1.1 FW2, effector-null feline heavy constant region
# B3: ZTS-1505 (antibody)
# heavy: B2 heavy
# light: EIQMTQSPSSLSASPGDRVTITCRASQGISIWLSWYQQKPGNIPKVLINKASNLHIGVPSRFSGSGSGTDFTLTISSLEPEDAATYYCLQSQTYPLTFGGGTKLEIKRSDAQPSVFLFQPSLDELHTGSASIVCILNDFYPKEVNVKWKVDGVVQNKGIQESTTEQNSKDSTYSLSSTLTMSSTEYQSHEKFSCEVTHKSLASTLVKSFQRSEC
# notes: also called ZT-1 505
# B4: Feline 11E12 1.2 (antibody, V domains shown)
# VH: QVLLVQSGAEVKKPGASVKIFCKASGYSFTYYDINWLRQAPEQGLEWMGWIFPGDGGTKYNETFKGRLTLTADTSTNTVYMELSSLRSADTAMYYCARGGTSVIRDAMDYWGQGALVTVSS
# VL: EVVLTQSSAFLSRTLKEKATITCRASESVDNYGISFMHWYQQKPNQAPKLLVKRASNLESGAPSRFSGSGSGTDFTLTISSPEPEDAATYYCQQSNKDPLTFGQGT
# notes: also called felinized 11E12 1.2
# B5: 15H05 mouse: canine chimera (antibody)
# heavy: QVQLQQSAAELARPGASVKMSCKTSGYTFTSYTIHWIKQRPGQGLEWIGNINPTSGYTENNQRFKDKTTLTVDRSSNTAYLQLHSLTSEDSAVYFCARWGFKYDGEWSFDVWGAGTTVTVSSASTTAPSVFPLAPSCGSTSGSTVALACLVSGYFPEPVTVSWNSGSLTSGVHTFPSVLQSSGLYSLSSMVTVPSSRWPSETFTCNVAHPASKTKVDKPVPKRENGRVPRPPDCPKCPAPEMLGGPSVFIFPPKPKDTLLIARTPEVTCVVVDLDPEDPEVQISWFVDGKQMQTAKTQPREEQFNGTYRVVSVLPIGHQDWLKGKQFTCKVNNKALPSPIERTISKARGQAHQPSVYVLPPSREELSKNTVSLTCLIKDFFPPDIDVEWQSNGQQEPESKYRTTPPQLDEDGSYFLYSKLSVDKSRWQRGDTFICAVMHEALHNHYTQESLSHSPGK
# light: DIQMNQSPSSLSASLGDTITVTCRASQGISIWLSWYQQKPGNIPKVLINKASNLHIGVPPRFSGSGSGTHFTLTITSLQPEDIATYYCLQSQTYPLTFGGGTKLEINRNDAQPAVYLFQPSPDQLHTGSASVVCLLNSFYPKDINVKWKVDGVIQDTGIQESVTEQDKDSTYSLSSTLTMSSTEYLSHELYSCEITHKSLPSTLIKSFQRSEC
# B6: mouse: feline 15H05 chimera (antibody)
# heavy: QVQLQQSAAELARPGASVKMSCKTSGYTFTSYTIHWIKQRPGQGLEWIGNINPTSGYTENNQRFKDKTTLTVDRSSNTAYLQLHSLTSEDSAVYFCARWGFKYDGEWSFDVWGAGTTVTVSSASTTAPSVFPLAPSCGTTSGATVALACLVLGYFPEPVTVSWNSGALTSGVHTFPAVLQASGLYSLSSMVTVPSSRWLSDTFTCNVAHPPSNTKVDKTVRKTDHPPGPKPCDCPKCPPPEAAGAPSIFIFPPKPKDTLSISRTPEVTCLVVDLGPDDSDVQITWFVDNTQVYTAKTSPREEQFNSTYRVVSVLPILHQDWLKGKEFKCKVNSKSLPSPIERTISKAKGQPHEPQVYVLPPAQEELSRNKVSVTCLIKSFHPPDIAVEWEITGQPEPENNYRTTPPQLDSDGTYFVYSKLSVDRSHWQRGNTYTCSVSHEALHSHHTQKSLTQSPGK
# light: DIQMNQSPSSLSASLGDTITVTCRASQGISIWLSWYQQKPGNIPKVLINKASNLHIGVPPRFSGSGSGTHFTLTITSLQPEDIATYYCLQSQTYPLTFGGGTKLEINRSDAQPSVFLFQPSLDELHTGSASIVCILNDFYPKEVNVKWKVDGVVQNKGIQESTTEQNSKDSTYSLSSTLTMSSTEYQSHEKFSCEVTHKSLASTLVKSFQRSECQRE
# B7: mouse anti IL-31 antibody 15H05 (antibody, mouse IgG1, kappa)
# heavy: QVQLQQSAAELARPGASVKMSCKTSGYTFTSYTIHWIKQRPGQGLEWIGNINPTSGYTENNQRFKDKTTLTVDRSSNTAYLQLHSLTSEDSAVYFCARWGFKYDGEWSFDVWGAGTTVTVSSKTTPPSVYPLAPGSAAQTNSMVTLGCLVKGYFPEPVTVTWNSGSLSSGVHTFPAVLESDLYTLSSSVTVPSSPRPSETVTCNVAHPASSTKVDKKIVPRDCGCKPCICTVPEVSSVFIFPPKPKDVLTITLTPKVTCVVVDISKDDPEVQFSWFVDDVEVHTAQTQPREEQFNSTFRSVSELPIMHQDWLNGKEFKCRVNSAAFPAPIEKTISKTKGRPKAPQVYTIPPPKEQMAKDKVSLTCMITDFFPEDITVEWQWNGQPAENYKNTQPIMNTNGSYFVYSKLNVQKSNWEAGNTFTCSVLHEGLHNHHTEKSLSHSPGK
# light: DIQMNQSPSSLSASLGDTITVTCRASQGISIWLSWYQQKPGNIPKVLINKASNLHIGVPPRFSGSGSGTHFTLTITSLQPEDIATYYCLQSQTYPLTFGGGTKLEINADAAPTVSIFPPSSEQLTSGGASVVCFLNNFYPKDINVKWKIDGSERQNGVLNSWTDQDSKDSTYSMSSTLTLTKDEYERHNSYTCEATHKTSTSPIVKSFNRNEC
# notes: Mouse hybridoma antibody, mouse IgG1 heavy and mouse kappa light constant regions; also called Mu-15H05; MU-15H05
# What was measured:
# [1] = molecular target: T1, canine IL-31 protein (Canine_IL31); experiment: Biacore, canine IL-31 surface, single antibody concentration (FIG. 4)
# Experimental: (§1) The affinity with which candidate mAbs bind canine and feline IL-31 was determined using surface plasmon resonance (SPR) on a Biacore system (Biocore Life Sciences (GE Healthcare), Uppsala, Sweden). To avoid affinity differences associated with differential surface preparation that can occur when immobilizing antibodies to surfaces; a strategy was employed where IL-31 was directly conjugated to the surface. Immobilization was obtained by amine coupling 5 μg/mL IL-31 using N-hydroxysuccinimide (NHS)/1-Ethyl-3-(3-dimethylaminopropyl) carbodiimide (EDC) chemistry. Chips were quenched with ethanolamine and the affinity with which all candidate mAbs bound to the immobilized IL-31 was evaluated. All curves were fit to a 1:1 model. […] Results for affinity measurements are described herein.
# For the indirect ELISA method, antibody binding to wildtype and feline IL-31 15H05 mutant proteins was assessed. All nine canine monoclonal antibodies (ZIL1, ZIL8, ZIL8, ZIL11, ZIL69, ZIL94, ZIL154, ZIL159, and ZIL171) were capable of binding to wildtype feline IL-31 and binding was impacted by mutations in the mAb 15H05 epitope region confirming the correct binding phenotype determined during the initial screening used to identify them. […]
# [2] = molecular target: T1, canine IL-31 protein (Canine_IL31); experiment: SPR (Biacore), IL-31 protein as surface
# Experimental: as §1
# Table 1 below describes the results for biacore analysis using multiple species of IL-31 protein as a surface capture.
# [3] = molecular target: T1, canine IL-31 protein (Canine_IL31); experiment: cell-based or functional assay
# [4] = molecular target: T1, canine IL-31 protein (Canine_IL31); experiment: SPR (Biacore), FIG. 2 Section B
# Experimental: as §1
# FIG. 2 details the affinity of antibodies with CDRs derived from mouse origin using biacore. […] These observations confirm the correct sequence for both mouse antibodies and indicate conversion to the chimeric form results in antibodies with equivalent or higher affinity when compared to the mouse parent with the exception of the mouse:feline 15H05 chimera which lost some affinity to both IL-31 species as a result of its conversion to the chimeric form. […]
# [5] = molecular target: T1, canine IL-31 protein (Canine_IL31); experiment: cell-based or functional assay
# [6] = molecular target: T2, canine IL-31 protein (Canine_IL31); experiment: Biacore
Binder,Kd [2] [pM],"Inhibition of IL-31 induced pSTAT3 IC50 (µg/ml), Canine IL-31 on Canine DH82 cells [3] [µg/ml]",other results
B1,–,–,binding result [1]: no binding
B2,2.41,23,–
B3,1.83,21.8,–
B4,–,–,binding result [4]: no binding
B5,–,–,IC50 against canine IL-31 (pSTAT3 assay; cell type not clear) [5]: 12.5 µg/ml
B6,–,–,Kd [6]: 12.9 pM; IC50 against canine IL-31 (pSTAT3 assay; cell type not clear) [5]: 28.6 µg/ml
B7,1.91,11.2,Kd [6]: 4.87 pM
